The RNAGym collection of RNA variant scans (doi:10.7554/elife.80360)

B1: Twister Ribozyme (parent)
chain: AACACUGCCAAUGCCGGUCCCAAGCCCGGAUAAAAGUGGAGGGGGCGG

Variants of: B1
Test: self-cleavage, relative activity (ratio to wild type); higher = more cleavage; co-transcriptional

Variant	self-cleavage
AACACUGCCAAUGCCGGUCCCAAGCCCGUAUAAAAGAGGAGGGGGCGG [G29U U37A]	0.512
AACACUGCCAAUGCCGGUCCCAAGCCCGUAUAAAAGCGGAGGGGGCGG [G29U U37C]	0.444
AACACUGCCAAUGCCGGUCCCAAGCCCGUAUAAACGUGGAGGGGGCGG [G29U A35C]	0.892
AACACUGCCAAUGCCGGUCCCAAGCCCGUAUAAAGGUGGAGGGGGCGG [G29U A35G]	0.786
AACACUGCCAAUGCCGGUCCCAAGCCCGUAUAAAAGUGGAGGGGGGGG [G29U C46G]	0.88
AACACUGCCAAUGCCGGUCCCAAGCCCGUAUAAAAGUGGAGGGGGUGG [G29U C46U]	0.901
AACACUGCCAAUGCCGGUCCCAAGCCCGGCUAACAGUGGAGGGGGCGG [A30C A34C]	0.0893
AACACUGCCAAUGCCGGUCCCAAGCCCGGCUAAUAGUGGAGGGGGCGG [A30C A34U]	0.314
AACACUGCCAAUGCCGGUCCCAAGCCCGCAUACAAGUGGAGGGGGCGG [G29C A33C]	0.545
AACACUGCCAAUGCCGGUCCCAAGCCCGCCUAAAAGUGGAGGGGGCGG [G29C A30C]	0.971
AACACUGCCAAUGCCGGUCCCAAGCCCGAAUAAAAGGGGAGGGGGCGG [G29A U37G]	0.395
AACACUGCCAAUGCCGGUCCCAAGCCCGAAUAAAAGAGGAGGGGGCGG [G29A U37A]	0.569
AACACUGCCAAUGCCGGUCCCAAGCCCGCAUAAAAGUGGAGGGGGCGU [G29C G48U]	0.642
AACACUGCCAAUGCCGGUCCCAAGCCCGUAUAAAAGUGGAGGGUGCGG [G29U G44U]	0.837
AACACUGCCAAUGCCGGUCCCAAGCCCGGCUAAAAGUGGAGGGGGCUG [A30C G47U]	0.48
AACACUGCCAAUGCCGGUCCCAAGCCCGGCUAAAAGUGGAGGGGGCAG [A30C G47A]	0.577
AACACUGCCAAUGCCGGUCCCAAGCCCGGCUAAAAGUGGAGGUGGCGG [A30C G43U]	0.121
AACACUGCCAAUGCCGGUCCCAAGCCCGGCUAAAAGUGGAGGCGGCGG [A30C G43C]	0.103
AACACUGCCAAUGCCGGUCCCAAGCCCGAAUAAAAGUGGAGGGGGCGA [G29A G48A]	0.874
AACACUGCCAAUGCCGGUCCCAAGCCCGGCUAAAAGUGCAGGGGGCGG [A30C G39C]	0.107
AACACUGCCAAUGCCGGUCCCAAGCCCGGCUAAAAGUGUAGGGGGCGG [A30C G39U]	0.106
AACACUGCCAAUGCCGGUCCCAAGCCCGCAUAAAAGUGGAGGGGACGG [G29C G45A]	0.667
AACACUGCCAAUGCCGGUCCCAAGCCCGCAUAAAAGUGGAGGGGUCGG [G29C G45U]	0.362
AACACUGCCAAUGCCGGUCCCAAGCCCGGCUAAAAGUGGACGGGGCGG [A30C G41C]	0.124
AACACUGCCAAUGCCGGUCCCAAGCCCGGCUAAAAGUGGAAGGGGCGG [A30C G41A]	0.133
AACACUGCCAAUGCCGGUCCCAAGCCCGGCUAAAAGUGGAUGGGGCGG [A30C G41U]	0.156
AACACUGCCAAUGCCGGUCCCAAGCCCGUAUAAAAGUGGAGAGGGCGG [G29U G42A]	0.224

Variant	self-cleavage
AACACUGCCAAUGCCGGUCCCAAGCCCGGGUCAAAGUGGAGGGGGCGG [A30G A32C]	0.877
AACACUGCCAAUGCCGGUCCCAAGCCCGCAUAAAAGUUGAGGGGGCGG [G29C G38U]	0.627
AACACUGCCAAUGCCGGUCCCAAGCCCGAAUAAAAGUGGAGUGGGCGG [G29A G42U]	0.323
AACACUGCCAAUGCCGGUCCCAAGCCCGAAUAAAAGUGGAGAGGGCGG [G29A G42A]	0.284
AACACUGCCAAUGCCGGUCCCAAGCCCGCAAAAAAGUGGAGGGGGCGG [G29C U31A]	1
AACACUGCCAAUGCCGGUCCCAAGCCCGCAGAAAAGUGGAGGGGGCGG [G29C U31G]	0.851
AACACUGCCAAUGCCGGUCCCAAGCCCGCAUAAAAGUGGAGGGUGCGG [G29C G44U]	0.777
AACACUGCCAAUGCCGGUCCCAAGCCCGAAUAAAAGUGGAGGGGGCCG [G29A G47C]	0.347
AACACUGCCAAUGCCGGUCCCAAGCCCGAAUAAAAGUGGAGGGGGCAG [G29A G47A]	0.689
AACACUGCCAAUGCCGGUCCCAAGCCCGAAUAAAAGUGGAGGGGGCUG [G29A G47U]	0.765
AACACUGCCAAUGCCGGUCCCAAGCCCGGCUAAAUGUGGAGGGGGCGG [A30C A35U]	0.912
AACACUGCCAAUGCCGGUCCCAAGCCCGGCUAAAAGUGGAGGGGGCGA [A30C G48A]	0.576
AACACUGCCAAUGCCGGUCCCAAGCCCGAAUAAAAGUGGAGGGGCCGG [G29A G45C]	0.249
AACACUGCCAAUGCCGGUCCCAAGCCCGCAUAAAAGUGGAGGGGGCAG [G29C G47A]	0.397
AACACUGCCAAUGCCGGUCCCAAGCCCGCAUAAAAGUGGAGGGGGCUG [G29C G47U]	0.3
AACACUGCCAAUGCCGGUCCCAAGCCCGCAUAAAAGUGGAGGGGGCCG [G29C G47C]	0.222
AACACUGCCAAUGCCGGUCCCAAGCCCGAAUAAAAGUUGAGGGGGCGG [G29A G38U]	0.634
AACACUGCCAAUGCCGGUCCCAAGCCCGUAUAAAAGUGGAGGGGGCGA [G29U G48A]	0.905
AACACUGCCAAUGCCGGUCCCAAGCCCGUAUAAAAGUGGAGGGGGCGU [G29U G48U]	0.867
AACACUGCCAAUGCCGGUCCCAAGCCCGGCUACAAGUGGAGGGGGCGG [A30C A33C]	0.676
AACACUGCCAAUGCCGGUCCCAAGCCCGGCUAUAAGUGGAGGGGGCGG [A30C A33U]	0.766
AACACUGCCAAUGCCGGUCCCAAGCCCGGCUAAAAGUGGAGCGGGCGG [A30C G42C]	0.111
AACACUGCCAAUGCCGGUCCCAAGCCCGGCUAAAACUGGAGGGGGCGG [A30C G36C]	0.0822
AACACUGCCAAUGCCGGUCCCAAGCCCGGCUAAAAUUGGAGGGGGCGG [A30C G36U]	0.0939
AACACUGCCAAUGCCGGUCCCAAGCCCGAAUAAAAGUGGAGGGAGCGG [G29A G44A]	0.738
AACACUGCCAAUGCCGGUCCCAAGCCCGAAUAAAAGUGGAGGGUGCGG [G29A G44U]	0.922
AACACUGCCAAUGCCGGUCCCAAGCCCGAAUAAAAGUGGAGGGCGCGG [G29A G44C]	0.803
